Test results published in patent US20120156198A1 (Hoffmann-La Roche, published 2012).
Positions count from the first letter of the chain named. One block for each binder: values may come before it.

Assays:
[1] = biological target: T1, recombinant human IL-18Rα Fc chimera (R&D Systems, Cat. No. 816-LR) (human, UniProt Q13478 19-329); experiment: ELISA, hFc fusion protein captured on anti-human Fc
T1 construct: Bought protein; also called hIL-18Rα (hFc-chimera R&D-Systems 816-LR); recombinant human IL-18Rα-Fc fusion protein; not shown: human Fc of the commercial chimera
T1 sequence: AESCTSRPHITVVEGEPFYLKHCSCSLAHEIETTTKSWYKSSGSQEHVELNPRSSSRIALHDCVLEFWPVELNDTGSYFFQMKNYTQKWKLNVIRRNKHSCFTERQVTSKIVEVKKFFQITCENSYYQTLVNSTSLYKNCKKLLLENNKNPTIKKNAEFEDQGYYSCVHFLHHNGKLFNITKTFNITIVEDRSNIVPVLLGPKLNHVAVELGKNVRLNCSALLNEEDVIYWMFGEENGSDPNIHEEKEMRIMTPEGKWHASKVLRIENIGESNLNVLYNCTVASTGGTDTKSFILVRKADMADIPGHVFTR
Experimental: (§1) The test was performed on 384-well microtiter plates (MaxiSorp™, Thermo Scientific Nunc, DK, Cat. No. 464718) at RT. After each incubation step, plates were washed 3 times with PBST. At the beginning, plates were coated with 0.5 μg/ml goat anti-human IgG Fc fragment (Jackson 1 mm. Res., US, Cat. No. 109-006-170) for at least 2 hours (h). Thereafter the wells were blocked with PBS supplemented with 0.2% Tween®-20 and 2% BSA (Roche Diagnostics GmbH, DE) for 1 h. 0.2 μg/ml of recombinant human IL-18Rα-Fc fusion protein (R&D Systems, UK, Cat. No. 816-LR) was captured on plate for 1 h. For testing the binding of antibodies to other proteins of the IL-1 receptor family 0.2 μg/ml of the following recombinant human proteins conjugated to human Fc (hFc) were captured: [0194] rhIL-1RI/hFc (R&D Systems, UK, Cat. No. 269-1R) [0195] rhIL-1sRII/hFc (R&D Systems, UK, Cat. No. 263-2R) [0196] rhIL-1R3/hFc (R&D Systems, UK, Cat. No. 676-CP) [0197] rhIL-2Rα/hFc (R&D Systems, UK, Cat. No. 1020-RL) [0198] rhIL-7Rα/hFc (R&D Systems, UK, Cat. No. 306-IR) [0199] rhIL-15R/hFc (R&D Systems, UK, Cat. No. 147-IR) [0200] rhST-2/hFc (R&D Systems, UK, Cat. No. 523-ST)
(§2) After washing the plate, dilutions of purified antibodies in PBS with 0.05% BSA and 0.2% Tween®-20 were incubated with the receptor proteins for 1 h. Binding of antibodies was detected with 1:2000 diluted horseradish peroxidase (HRP)-conjugates of anti-mouse IgG (GE Healthcare, UK, Cat. No. NA9310V). After 1 h the plates were washed 6 times with PBST and developed with freshly prepared BM Blue® POD substrate solution (BM Blue®: 3,3″-5,5″-Tetramethylbenzidine, Roche Diagnostics GmbH, DE, Cat. No. 11484281001) for 30 minutes at RT. Absorbance was measured at 370 nm. The values were corrected for the control without antibody.

[2] = biological target: T2, rhIL-15R/hFc (R&D Systems, Cat. No. 147-IR) (human, UniProt Q13261 31-205); experiment: as above
T2 construct: Bought; not shown: human Fc (hFc) of the commercial protein
Experimental: as §1, §2

[3] = biological target: T3, human IL-18Rα/IL-18Rβ on transfected HEK293 cells (human, UniProt O95256 20-599); experiment: FACS on transfected HEK293 cells, antibody 1 µg/ml
T3 construct: whole, on cells; also called human IL-18Ralpha+IL-18Rβ subunits
T3 sequence 1: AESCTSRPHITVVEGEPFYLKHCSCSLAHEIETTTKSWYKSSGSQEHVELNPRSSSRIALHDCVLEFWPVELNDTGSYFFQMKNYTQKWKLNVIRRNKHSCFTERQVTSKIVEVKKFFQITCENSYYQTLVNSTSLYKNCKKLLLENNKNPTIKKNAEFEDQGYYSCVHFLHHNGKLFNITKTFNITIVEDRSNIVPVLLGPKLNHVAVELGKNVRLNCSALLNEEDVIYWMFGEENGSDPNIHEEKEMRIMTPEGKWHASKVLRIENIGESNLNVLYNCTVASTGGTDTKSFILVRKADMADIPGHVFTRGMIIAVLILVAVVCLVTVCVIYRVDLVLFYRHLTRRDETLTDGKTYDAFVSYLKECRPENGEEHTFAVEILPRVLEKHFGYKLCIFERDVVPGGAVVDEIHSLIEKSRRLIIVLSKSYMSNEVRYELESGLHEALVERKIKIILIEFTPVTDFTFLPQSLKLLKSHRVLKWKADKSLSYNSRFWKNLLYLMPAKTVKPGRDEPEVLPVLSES
T3 sequence 2: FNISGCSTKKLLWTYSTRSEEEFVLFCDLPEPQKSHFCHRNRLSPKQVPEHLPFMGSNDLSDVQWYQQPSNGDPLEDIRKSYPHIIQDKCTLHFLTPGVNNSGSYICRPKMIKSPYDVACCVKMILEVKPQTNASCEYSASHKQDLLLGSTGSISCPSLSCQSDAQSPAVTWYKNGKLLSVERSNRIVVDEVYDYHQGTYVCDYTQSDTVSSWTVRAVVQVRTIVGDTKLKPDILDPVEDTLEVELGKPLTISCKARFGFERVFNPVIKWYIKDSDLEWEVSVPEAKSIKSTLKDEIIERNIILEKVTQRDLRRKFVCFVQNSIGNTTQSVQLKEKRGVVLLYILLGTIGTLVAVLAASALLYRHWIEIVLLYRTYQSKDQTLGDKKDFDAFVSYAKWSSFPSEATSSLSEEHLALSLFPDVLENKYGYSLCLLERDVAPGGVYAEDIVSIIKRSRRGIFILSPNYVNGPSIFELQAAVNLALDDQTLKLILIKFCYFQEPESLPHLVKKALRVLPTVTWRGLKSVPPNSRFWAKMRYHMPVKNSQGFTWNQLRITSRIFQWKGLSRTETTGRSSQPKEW
Experimental: 10⁶ HEK293 cells were transfected with a plasmid expressing human IL-18Ralpha+IL-18Rβ. Transfected cells were incubated for 1 day. 1×10⁵ cells were incubated on ice in PBS-buffer+2% FCS and stained with an IL-18Rα antibody (1 μg/ml). As secondary antibody anti-mouse IgG1-PE from R&D Systems (F0102B) was added in 1:20 dilution and as isotype control mouse IgG1 from BD Pharmingen (557273) was used at a concentration of 1 μg/ml.

[4] = biological target: T4, human IL-18Rα (IL-18R1) on human cells (KG-1 cells, PBMC, TH1-cultured T cells, whole blood) (human, UniProt Q13478 19-541); experiment: cell-based or functional assay
T4 sequence: T3 sequence 1

T2 sequence (Q13261 31-205): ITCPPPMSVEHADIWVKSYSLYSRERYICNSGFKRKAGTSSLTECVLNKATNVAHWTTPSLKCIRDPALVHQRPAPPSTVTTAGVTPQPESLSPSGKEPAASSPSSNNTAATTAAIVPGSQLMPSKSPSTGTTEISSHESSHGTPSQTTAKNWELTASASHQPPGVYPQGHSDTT

absorbance at 370 nm (corrected for the control without antibody) [1]: 2.43
absorbance at 370 nm (corrected for the control without antibody) [2]: 0.04
binding result [3]: binds
IL-18 induced IFNγ production by human KG-1 cells, IC50 [pM] [4]: 27 pM
B1: Mab 1G12 (antibody, V domains shown)
VH: QVQLQQPGAELVKPGASVRMSCKTSDYTFTSNWMHWVKQRPGQGLEWIGTIDPSDSYTYYNQKFKGRATLTVDTSSSTAYMQLSSLTSEDSAVYYCTTSGDYDADRYFDVWGAGTTVTVSS
VL: DIVLTQSPASLGVSLGQRATISCRASKSVSTSGDSYMHWYQQKPGQSPKLLIYLASNLESGVPARFSGSGSGTDFTLNIHPVEEEDAATYYCQQSRELPLSFGAGTKLELK
notes: Monoclonal antibody from immunized NMRI mice; detected with anti-mouse IgG1-PE / anti-mouse IgG; also called F20.1G12; monoclonal antibody 1G12

absorbance at 370 nm (corrected for the control without antibody) [1]: 2.56
absorbance at 370 nm (corrected for the control without antibody) [2]: 0.19
binding result [3]: binds
IL-18 induced IFNγ production by human KG-1 cells, IC50 [pM] [4]: 43 pM
B2: Mab 2D11 (antibody, V domains shown)
VH: B1 VH with R19K, T24A, R67K, Q82H
VL: B1 VL
notes: Monoclonal antibody from immunized NMRI mice; detected with anti-mouse IgG1-PE / anti-mouse IgG; also called F20.2D11
